This note sets out measurements from publication PMC3474971.

This data set deals with thrombin (UniProt P00734;P00734 328-363;364-622). Briefly: dye-displacement fluorescence; YOYO-1 25 nM, aptamer 10 nM; 20 mM Tris-Cl pH 7.5, 300 mM NaCl, 5 mM MgCl2, 10 mM KCl; 25 C; 30 min incubation with target before dye.

B1: ATP aptamer (structured_DNA)
DNA: ATAGCGGAGGAAGGATACCTGGGGGAGTATAT
As to B1, the binding result is “no binding”.
